Source: the supplement of paper PMC10567573

B1: RTN1 (parent)
chain: VVAYLALAALSATISFRIYKSVLQ
B2: STX11 (parent)
chain: FQRAMHDYNQAEMKQRDNCKIRIQ
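Further: lentivirally expressed fusions sorted by FACS into six bins by GFP to DsRed ratio, PSI derived from sequencing read proportions per bin multiplied by bin number.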

Variants of: B1
Test: protein stability index of a GFP-peptide fusion (GPS, HEK-293T) (PSI 1-6); higher = more stable
Details: c terminus: a fixed tail appended
VHAYLALAALSATISFRIYKSVLQ [V2H] showed a protein stability index of 4.06. With VQAYLALAALSATISFRIYKSVLQ [V2Q] the protein stability index was 3.03. Work on VCAYLALAALSATISFRIYKSVLQ [V2C] yielded a protein stability index of 3.71. For VVAYLALAALSATISHRIYKSVLQ [F16H], the protein stability index was 3.82. With VVAYLALAALSATISFRIYKSVLL [Q24L] the protein stability index was 2.2. VVAYLALAALSATISFDIYKSVLQ [R17D] gave a protein stability index of 2.83. In the case of VVAYLALAALSATISFNIYKSVLQ [R17N], the protein stability index is reported as 4.14. VVAYLALAATSATISFRIYKSVLQ [L10T] gave a protein stability index of 2.51. In the case of QVAYLALAALSATISFRIYKSVLQ [V1Q], the protein stability index is reported as 2.13. NVAYLALAALSATISFRIYKSVLQ [V1N] gave a protein stability index of 2.64. For TVAYLALAALSATISFRIYKSVLQ [V1T], the protein stability index was 2.62. Work on VVAYLALAALSATTSFRIYKSVLQ [I14T] yielded a protein stability index of 2.12. For VVAELALAALSATISFRIYKSVLQ [Y4E], the protein stability index was 2.1. VVAHLALAALSATISFRIYKSVLQ [Y4H] showed a protein stability index of 2.65. With VVAPLALAALSATISFRIYKSVLQ [Y4P] the protein stability index was 1.75. VVAYLALAALSARISFRIYKSVLQ [T13R] gave a protein stability index of 2.82. VVAYLALEALSATISFRIYKSVLQ [A8E] showed a protein stability index of 2.46. In the case of VVAYLALIALSATISFRIYKSVLQ [A8I], the protein stability index is reported as 3.23. Work on VVAYLALQALSATISFRIYKSVLQ [A8Q] yielded a protein stability index of 4.3. VVAYLALAALSATIMFRIYKSVLQ [S15M] showed a protein stability index of 1.21. In the case of VVAYLALAALSATIPFRIYKSVLQ [S15P], the protein stability index is reported as 2.71. VVAYLALAALSATISFRIYKKVLQ [S21K] gave a protein stability index of 1.45. With VVAYLALAALSATISFRIYKFVLQ [S21F] the protein stability index was 2.18. Variant VVAYLALAALSATISFRIYKTVLQ [S21T] has a protein stability index of 3.04. With VVAYLALAALSATISFRIYKNVLQ [S21N] the protein stability index was 1.52. VVAYLAVAALSATISFRIYKSVLQ [L7V] gave a protein stability index of 3.13. Variant VVAYLALAALSATISFRVYKSVLQ [I18V] has a protein stability index of 4.01. For VVAYLALANLSATISFRIYKSVLQ [A9N], the protein stability index was 3.05. For VVAYLWLAALSATISFRIYKSVLQ [A6W], the protein stability index was 3.42. Work on VVAYLALAALSATISFRIYKSQLQ [V22Q] yielded a protein stability index of 2.7. VVAYLALAALSATISFRIYKSELQ [V22E] gave a protein stability index of 3.42. VVAYLALAALSATISFRIYKSFLQ [V22F] gave a protein stability index of 3.99. Variant VVAYLALAALPATISFRIYKSVLQ [S11P] has a protein stability index of 2.49. With VVAYGALAALSATISFRIYKSVLQ [L5G] the protein stability index was 1.95. For VVAYVALAALSATISFRIYKSVLQ [L5V], the protein stability index was 1.63. In the case of VVAYMALAALSATISFRIYKSVLQ [L5M], the protein stability index is reported as 2.54.

Variants of: B2
Test: as above
Details: c terminus: a fixed tail appended
Work on FNRAMHDYNQAEMKQRDNCKIRIQ [Q2N] yielded a protein stability index of 3.61. Variant FIRAMHDYNQAEMKQRDNCKIRIQ [Q2I] has a protein stability index of 2.27. Work on FWRAMHDYNQAEMKQRDNCKIRIQ [Q2W] yielded a protein stability index of 2.19. In the case of FDRAMHDYNQAEMKQRDNCKIRIQ [Q2D], the protein stability index is reported as 4.2. FYRAMHDYNQAEMKQRDNCKIRIQ [Q2Y] gave a protein stability index of 2.95. FHRAMHDYNQAEMKQRDNCKIRIQ [Q2H] showed a protein stability index of 1.81. With FRRAMHDYNQAEMKQRDNCKIRIQ [Q2R] the protein stability index was 3.02. With FVRAMHDYNQAEMKQRDNCKIRIQ [Q2V] the protein stability index was 2.55. For FFRAMHDYNQAEMKQRDNCKIRIQ [Q2F], the protein stability index was 2.84. For FPRAMHDYNQAEMKQRDNCKIRIQ [Q2P], the protein stability index was 2.76. Variant FGRAMHDYNQAEMKQRDNCKIRIQ [Q2G] has a protein stability index of 3.82. In the case of FLRAMHDYNQAEMKQRDNCKIRIQ [Q2L], the protein stability index is reported as 2.65. FCRAMHDYNQAEMKQRDNCKIRIQ [Q2C] gave a protein stability index of 1.79. Variant FARAMHDYNQAEMKQRDNCKIRIQ [Q2A] has a protein stability index of 2. In the case of FSRAMHDYNQAEMKQRDNCKIRIQ [Q2S], the protein stability index is reported as 3.41. FTRAMHDYNQAEMKQRDNCKIRIQ [Q2T] showed a protein stability index of 2.63. Variant FKRAMHDYNQAEMKQRDNCKIRIQ [Q2K] has a protein stability index of 3.14. FMRAMHDYNQAEMKQRDNCKIRIQ [Q2M] gave a protein stability index of 2.69. FERAMHDYNQAEMKQRDNCKIRIQ [Q2E] gave a protein stability index of 4. Variant FQRTMHDYNQAEMKQRDNCKIRIQ [A4T] has a protein stability index of 2.69. Variant FQRRMHDYNQAEMKQRDNCKIRIQ [A4R] has a protein stability index of 1.9. Work on FQREMHDYNQAEMKQRDNCKIRIQ [A4E] yielded a protein stability index of 3.15. FQRKMHDYNQAEMKQRDNCKIRIQ [A4K] gave a protein stability index of 2.54. FQRVMHDYNQAEMKQRDNCKIRIQ [A4V] gave a protein stability index of 2.28. In the case of FQRFMHDYNQAEMKQRDNCKIRIQ [A4F], the protein stability index is reported as 2.86. Work on FQRIMHDYNQAEMKQRDNCKIRIQ [A4I] yielded a protein stability index of 2.18. FQRGMHDYNQAEMKQRDNCKIRIQ [A4G] showed a protein stability index of 2.19. FQRQMHDYNQAEMKQRDNCKIRIQ [A4Q] showed a protein stability index of 3.56. Variant FQRDMHDYNQAEMKQRDNCKIRIQ [A4D] has a protein stability index of 3.4. Variant FQRPMHDYNQAEMKQRDNCKIRIQ [A4P] has a protein stability index of 3.3. Work on FQRSMHDYNQAEMKQRDNCKIRIQ [A4S] yielded a protein stability index of 2.8. FQRHMHDYNQAEMKQRDNCKIRIQ [A4H] showed a protein stability index of 2.75. Variant FQRWMHDYNQAEMKQRDNCKIRIQ [A4W] has a protein stability index of 1.77. With FQRNMHDYNQAEMKQRDNCKIRIQ [A4N] the protein stability index was 2.78. With FQRYMHDYNQAEMKQRDNCKIRIQ [A4Y] the protein stability index was 2.59. FQRLMHDYNQAEMKQRDNCKIRIQ [A4L] showed a protein stability index of 2.46. FQRCMHDYNQAEMKQRDNCKIRIQ [A4C] showed a protein stability index of 2.21. For FQRMMHDYNQAEMKQRDNCKIRIQ [A4M], the protein stability index was 2.22. Work on FQRANHDYNQAEMKQRDNCKIRIQ [M5N] yielded a protein stability index of 3.1. With FQRAPHDYNQAEMKQRDNCKIRIQ [M5P] the protein stability index was 2.64. For FQRASHDYNQAEMKQRDNCKIRIQ [M5S], the protein stability index was 2.63. FQRALHDYNQAEMKQRDNCKIRIQ [M5L] showed a protein stability index of 3.18. With FQRAIHDYNQAEMKQRDNCKIRIQ [M5I] the protein stability index was 2.16. Work on FQRAFHDYNQAEMKQRDNCKIRIQ [M5F] yielded a protein stability index of 1.8. Work on FQRAQHDYNQAEMKQRDNCKIRIQ [M5Q] yielded a protein stability index of 2.95. FQRAAHDYNQAEMKQRDNCKIRIQ [M5A] gave a protein stability index of 3.93. For FQRARHDYNQAEMKQRDNCKIRIQ [M5R], the protein stability index was 2.78. Variant FQRADHDYNQAEMKQRDNCKIRIQ [M5D] has a protein stability index of 3.65. Variant FQRAHHDYNQAEMKQRDNCKIRIQ [M5H] has a protein stability index of 2.16. For FQRATHDYNQAEMKQRDNCKIRIQ [M5T], the protein stability index was 3.15. FQRAYHDYNQAEMKQRDNCKIRIQ [M5Y] gave a protein stability index of 1.88. FQRAGHDYNQAEMKQRDNCKIRIQ [M5G] showed a protein stability index of 2.9. FQRAKHDYNQAEMKQRDNCKIRIQ [M5K] showed a protein stability index of 2.86. Variant FQRAEHDYNQAEMKQRDNCKIRIQ [M5E] has a protein stability index of 3.77. With FQRAVHDYNQAEMKQRDNCKIRIQ [M5V] the protein stability index was 2.63. FQRACHDYNQAEMKQRDNCKIRIQ [M5C] showed a protein stability index of 2.73. FQRAMHDYCQAEMKQRDNCKIRIQ [N9C] gave a protein stability index of 2.15. For FQRAMHDYDQAEMKQRDNCKIRIQ [N9D], the protein stability index was 2.84.
